According to publication PMC3110666 (Nature cell biology, 2011):

Target: the molecule itself
Experiment: cross-linking

B1: G6PD of MEF cells (enzyme, mouse (endogenous in MEF), UniProt Q00612 1-515, looked up)
chain: MAEQVALSRTQVCGILREELYQGDAFHQADTHIFIIMGASGDLAKKKIYPTIWWLFRDGLLPEDTFIVGYARSRLTVDDIRKQSEPFFKATPEERPKLEEFFARNSYVAGQYDDAASYKHLNSHMNALHQGMQANRLFYLALPPTVYEAVTKNIQETCMSQTGWNRIIVEKPFGRDLQSSNQLSNHISSLFREDQIYRIDHYLGKEMVQNLMVLRFANRIFGPIWNRDNIACVILTFKEPFGTEGRGGYFDEFGIIRDVMQNHLLQMLCLVAMEKPATTGSDDVRDEKVKVLKCISEVETDNVVLGQYVGNPNGEGEAANGYLDDPTVPHGSTTATFAAAVLYVENERWDGVPFILRCGKALNERKAEVRLQFRDVAGDIFHQQCKRNELVIRVQPNEAVYTKMMTKKPGMFFNPEESELDLTYGNRYKNVKLPDAYERLILDVFCGSQMHFVRSDELREAWRIFTPLLHKIDREKPQPIPYVYGSRGPTEADELMKRVGFQYEGTYKWVNPHKL
  stoichiometry N: 2
